The target of this assay is ^hexYME1^WB (^hexYME1 variant containing an E381Q Walker B mutant) (yeast) (UniProt P32795). Kind of assay: cryo-EM structure.

Consider one substance from publication PMC5829300.

“^hexYME1^WB (^hexYME1 variant containing an E381Q Walker B mutant) (from UniProt P32795 279-712) (enzyme)”: the stoichiometry N was determined as 6.
